Measured values from paper PMC4444369 (Journal of molecular biology, 2014).

Molecular target: APC3 (wild-type, untagged) (human, UniProt P30260-2 1-830)
Assay: SEC

B1: APC16^C (Strep tag removed by TEV) (domain or fragment)
chain: not shown
- binding result: binds
